Test results reported in article PMC6370633, “Mechanistic Insight Into the Interaction Between Helicobacter pylori Urease Subunit α and Its Molecular Chaperone Hsp60” (Frontiers in Microbiology, 2019).
Where a chain is given by its changes, count along the chain named.

B1: Helicobacter pylori Hsp60 with a 6 × His tag on its C terminus (natural protein, Helicobacter pylori 26695, UniProt P42383 1-546, looked up)
chain: MAKEIKFSDSARNLLFEGVRQLHDAVKVTMGPRGRNVLIQKSYGAPSITKDGVSVAKEIELSCPVANMGAQLVKEVASKTADAAGDGTTTATVLAYSIFKEGLRNITAGANPIEVKRGMDKAAEAIINELKKASKKVGGKEEITQVATISANSDHNIGKLIADAMEKVGKDGVITVEEAKGIEDELDVVEGMQFDRGYLSPYFVTNAEKMTAQLDNAYILLTDKKISSMKDILPLLEKTMKEGKPLLIIAEDIEGEALTTLVVNKLRGVLNIAAVKAPGFGDRRKEMLKDIAILTGGQVISEELGLSLENAEVEFLGKAGRIVIDKDNTTIVDGKGHSHDVKDRVAQIKTQIASTTSDYDKEKLQERLAKLSGGVAVIKVGAASEVEMKEKKDRVDDALSATKAAVEEGIVIGGGAALIRAAQKVHLNLHDDEKVGYEIIMRAIKAPLAQIAINAGYDGGVVVNEVEKHEGHFGFNASNGKYVDMFKEGIIDPLKVERIALQNAVSVSSLLLTTEATVHEIKEEKAAPAMPDMGGMGGMGGMGGMM
notes: also called recombinant Hsp60; source: E. coli BL21(DE3), purified (Ni-NTA, Sephadex G-75 gel filtration); not shown: His6, C-terminal, kept
B2: UreA-His (urease α subunit fused with a His tag on its C-terminus) (natural protein)
chain: MKLTPKELDKLMLHYAGELAKKRKEKGIKLNYVEAVALISAHIMEEARAGKKTAAELMQEGRTLLKPDDVMDGVASMIHEVGIEAMFPDGTKLVTVHTPIEANGKLVPGELFLKNEDITINEGKKAVSVKVKNVGDRPVQIGSHFHFFEVNRCLDFDREKTFGKRLDIASGTAVRFEPGEEKSVELIDIGGNRRIFGFNALVDRQADNESKKIALHRAKERGFHGAKSDDNYVKTIKE
notes: also called wild-type UreA-His; urease subunit α; source: E. coli BL21(DE3), purified (Ni-NTA); not shown: His tag, C-terminal, kept
B3: UreA-His E25A (natural protein)
chain: B2 chain with E25A
notes: source: E. coli BL21(DE3), purified as wild-type UreA-His; not shown: His tag, C-terminal, kept
B4: UreA-His Y15A (natural protein)
chain: B2 chain with Y15A
notes: as for B3
B5: UreA-His K26A (natural protein)
chain: B2 chain with K26A
notes: as for B3
B6: UreA-His K66A (natural protein)
chain: B2 chain with K66A
notes: as for B3
B7: UreA-His R23A (natural protein)
chain: B2 chain with R23A
notes: as for B3
B8: UreA-His K22A (natural protein)
chain: B2 chain with K22A
notes: as for B3
B9: UreA-His D68A (natural protein)
chain: B2 chain with D68A
notes: as for B3

These binders were tested against T1, UreA-GST (UreA fused with GST tag on its C-terminus) (Helicobacter pylori 26695, UniProt P14916 1-238) (assay: pull-down; GST-fused proteins on glutathione Sepharose 4B beads (20 μl), incubated with 0.4 ml purified Hsp60 (1 mg/ml in 50 mM Tris-HCl, pH 8.0) at 4°C for 2 h; washed four times; Western blot (anti-His) and SDS-PAGE). Details: both partners purified.
T1 construct: source: E. coli BL21(DE3), supernatant immobilized on glutathione Sepharose 4B beads; not shown: GST, C-terminal, kept
T1 sequence: B2 chain
B1 was tested, and the “stoichiometry N” value was ~1 Hsp60:UreA-GST.

These binders were tested against B1 (assay: SPR; BIAcore T100; Hsp60 immobilized on CM5 chip (~600 RU); UreA-His or mutants as analytes (0.36-2.19 μM); PBS pH 7.4, 30 μl/min, 25°C; kinetic analysis, global fit to 1:1 Langmuir model). Details: both partners purified.
B2 was tested, and the Kd was 17 nM, the koff was 0.000126 s⁻¹ and the kon was 7286 ± 15 M⁻¹ s⁻¹.
Binder B3 has a Kd of 140 nM, a koff of 0.00567 s⁻¹ and a kon of 40200 ± 1670 M⁻¹ s⁻¹.
In the case of B4, the Kd is reported as 150 nM, the koff is reported as 0.00164 s⁻¹ and the kon is reported as 11200 ± 287 M⁻¹ s⁻¹.
With B5 the Kd was 460 nM, the koff was 0.0122 s⁻¹ and the kon was 26200 ± 250 M⁻¹ s⁻¹.
Work on B6 yielded a Kd of 210 nM, a koff of 0.00115 s⁻¹ and a kon of 5400 ± 214 M⁻¹ s⁻¹.
B7 gave a Kd of 280 nM, a koff of 0.00144 s⁻¹ and a kon of 5070 ± 85 M⁻¹ s⁻¹.
B8 gave a Kd of 310 nM, a koff of 0.00179 s⁻¹ and a kon of 5840 ± 146 M⁻¹ s⁻¹.
Work on B9 yielded a Kd of 2000 nM, a koff of 0.00227 s⁻¹ and a kon of 1160 ± 41 M⁻¹ s⁻¹.
